Laboratory results as given in US20240182536A1 (MURAL ONCOLOGY, published 2024).
Where a chain is given by its changes, count along the chain named. Numbers in names are those of the source.

T1: IL-18 receptors on HEK-Blue IL-18 reporter cells (InvivoGen) (UniProt Q13478 19-541; O95256 20-599)
T1 sequence (looked up) 1: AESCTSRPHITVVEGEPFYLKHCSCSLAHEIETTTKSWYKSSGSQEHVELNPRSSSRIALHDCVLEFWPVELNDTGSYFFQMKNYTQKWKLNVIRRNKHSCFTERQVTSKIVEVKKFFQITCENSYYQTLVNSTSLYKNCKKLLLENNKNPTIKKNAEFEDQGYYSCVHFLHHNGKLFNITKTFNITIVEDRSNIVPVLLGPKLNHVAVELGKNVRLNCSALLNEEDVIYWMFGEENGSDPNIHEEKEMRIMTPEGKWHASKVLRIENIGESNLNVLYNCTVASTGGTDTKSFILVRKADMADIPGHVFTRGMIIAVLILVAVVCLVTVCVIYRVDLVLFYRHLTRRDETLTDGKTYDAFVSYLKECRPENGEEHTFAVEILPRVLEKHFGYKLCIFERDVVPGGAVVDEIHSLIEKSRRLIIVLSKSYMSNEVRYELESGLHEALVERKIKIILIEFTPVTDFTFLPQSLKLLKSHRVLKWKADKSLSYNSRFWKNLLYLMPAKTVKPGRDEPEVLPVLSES
T1 sequence (looked up) 2: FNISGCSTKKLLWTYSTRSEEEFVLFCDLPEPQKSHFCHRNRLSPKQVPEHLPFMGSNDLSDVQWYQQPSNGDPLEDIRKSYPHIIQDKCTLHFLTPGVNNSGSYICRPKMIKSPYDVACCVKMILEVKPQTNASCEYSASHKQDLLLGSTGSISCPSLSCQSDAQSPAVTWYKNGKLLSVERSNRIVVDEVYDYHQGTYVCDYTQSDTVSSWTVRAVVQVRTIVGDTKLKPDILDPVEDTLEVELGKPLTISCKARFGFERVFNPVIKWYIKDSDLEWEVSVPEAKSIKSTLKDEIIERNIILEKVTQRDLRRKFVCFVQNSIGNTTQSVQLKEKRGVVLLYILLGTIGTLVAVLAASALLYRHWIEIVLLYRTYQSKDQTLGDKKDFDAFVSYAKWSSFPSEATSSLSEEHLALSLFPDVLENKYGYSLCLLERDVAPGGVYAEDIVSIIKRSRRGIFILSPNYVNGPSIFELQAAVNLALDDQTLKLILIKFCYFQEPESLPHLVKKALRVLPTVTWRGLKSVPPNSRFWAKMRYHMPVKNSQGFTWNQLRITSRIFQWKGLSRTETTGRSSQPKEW

T2: human IL-18 binding protein (IL-18BP) (human, UniProt O95998 31-194)
T2 sequence (looked up): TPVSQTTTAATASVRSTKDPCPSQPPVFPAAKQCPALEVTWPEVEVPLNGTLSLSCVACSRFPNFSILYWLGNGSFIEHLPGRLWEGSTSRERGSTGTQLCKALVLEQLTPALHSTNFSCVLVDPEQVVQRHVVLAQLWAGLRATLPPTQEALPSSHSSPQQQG

T3: IL-18 receptors on HEK-Blue IL-18 reporter cells (UniProt Q13478 19-541; O95256 20-599, limits assumed)
T3 sequence (looked up) 1: T1 sequence (looked up) 1
T3 sequence (looked up) 2: T1 sequence (looked up) 2

T4: human IL-18 binding protein (human, UniProt O95998 31-194)
T4 sequence (looked up): T2 sequence (looked up)

T5: mouse IL-18 receptor alpha (mouse, UniProt Q61098 20-326, limits assumed)
T5 construct: also called Mouse IL18Ra; mouse IL-18R alpha
T5 sequence (looked up): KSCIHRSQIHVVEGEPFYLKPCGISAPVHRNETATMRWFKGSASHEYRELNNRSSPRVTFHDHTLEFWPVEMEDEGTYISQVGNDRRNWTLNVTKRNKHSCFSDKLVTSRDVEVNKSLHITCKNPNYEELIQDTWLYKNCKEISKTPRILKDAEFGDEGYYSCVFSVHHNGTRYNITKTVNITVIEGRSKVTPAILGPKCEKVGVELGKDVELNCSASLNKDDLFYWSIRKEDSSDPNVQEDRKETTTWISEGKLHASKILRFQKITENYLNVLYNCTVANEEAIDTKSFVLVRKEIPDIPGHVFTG

T6: mouse IL-18 binding protein (mouse, UniProt Q9Z0M9 29-193)
T6 construct: also called Mouse IL18BP; Mouse IL-18BP
T6 sequence (looked up): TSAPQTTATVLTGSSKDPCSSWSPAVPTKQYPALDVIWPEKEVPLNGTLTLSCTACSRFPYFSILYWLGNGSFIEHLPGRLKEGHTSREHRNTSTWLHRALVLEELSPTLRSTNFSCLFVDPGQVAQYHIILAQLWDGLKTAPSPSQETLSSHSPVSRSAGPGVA

T7: interleukin 18 binding protein (IL-18BP) (UniProt O95998 31-194)
T7 sequence (looked up): T2 sequence (looked up)

T8: IL-18 receptor (IL-18Rα and IL-18Rβ) (UniProt Q13478 19-541; O95256 20-599, limits assumed)
T8 sequence (looked up) 1: T1 sequence (looked up) 1
T8 sequence (looked up) 2: T1 sequence (looked up) 2

B1: IL-18 variant G3A, N91L, K53S (ligand)
chain: YFAKLESKLSVIRNLNDQVLFIDQGNRPLFEDMTDSDMRDNAPRTIFIISMYSDSQPRGMAVTISVKSEKISTLSSENKIISFKEMNPPDLIKDTKSDIIFFQRSVPGHDNKMQFESSSYEGYFLASEKERDLFKLILKKEDELGDRSIMFTVQNED
B2: IL-18 variant G3R, N91S, K53A (ligand)
chain: B1 chain with A3R, S53A, L91S
B3: IL-18 variant G3R, N91A, K53S (ligand)
chain: B1 chain with A3R, L91A
notes: also called G3R/K53S/N91A
B4: IL-18 variant G3K, N91I, K53S (ligand)
chain: B1 chain with A3K, L91I
B5: IL-18 variant G3F, N91E, K53S (ligand)
chain: B1 chain with A3F, L91E
notes: also called G3F/K53S/N91E
B6: IL-18 variant G3R, N91M, K53A (ligand)
chain: B1 chain with A3R, S53A, L91M
notes: also called G3R/K53A/N91M
B7: human IL-18 variant G3V/E6K/K53A (ligand)
chain: B1 chain with A3V, E6K, S53A, L91N
B8: human IL-18 variant G3V/M60K (ligand)
chain: B1 chain with A3V, S53K, M60K, L91N
B9: Comparator 5 on monoFc scaffold (Fc fusion, not shown: small tags and cut ends)
chain: HFGRLHCTTAVIRNINDQVLFVDKRQPVFEDMTDIDQSASEPQTRLIIYAYGDSRARGKAVTLSVKDSKMSTLSCKNKIISFEEMDPPENIDDIQSDLIFFQKRVPGHNKMEFESSLYEGHFLACQKEDDAFKLILKKKDENGDKSVMFTLTNLHQSNGGPSVFLFPPKPKDTLMISRTPEVTCVVVDVSHEDPEVKFNWYVDGVEVHNAKTKPREEQYNSTYRVVSVLTVLHQDWLNGKEYKCKVSNKALPAPIEKTISKAKGQPREPQVYTLPPSREEMTKNQVNLTCLVKGFYPSDIAVEWESNGQPENNYKTTPPVLDSDGSFFLNSTLTVDKSRWQQGNVFSCSVMHEALHNHYTQKSLSLS
B10: mouse IL-18 G3V/L59M on monoFc scaffold (Fc fusion, not shown: small tags and cut ends)
chain: B9 chain with H1N, G3V, C7S, A50M, G52K, R55E, A56V, K59M, C75S, C125S
B11: mouse IL-18 G3T/H6K/L59K on monoFc scaffold (Fc fusion, not shown: small tags and cut ends)
chain: B9 chain with H1N, G3T, H6K, C7S, A50M, G52K, R55E, A56V, C75S, C125S
B12: mouse IL-18 G3V/L59K on monoFc scaffold (Fc fusion, not shown: small tags and cut ends)
chain: B9 chain with H1N, G3V, C7S, A50M, G52K, R55E, A56V, C75S, C125S
B13: mouse IL-18 G3V/L59R on monoFc scaffold (Fc fusion, not shown: small tags and cut ends)
chain: B9 chain with H1N, G3V, C7S, A50M, G52K, R55E, A56V, K59R, C75S, C125S
B14: mouse IL-18 G3T/L59K on monoFc scaffold (Fc fusion, not shown: small tags and cut ends)
chain: B9 chain with H1N, G3T, C7S, A50M, G52K, R55E, A56V, C75S, C125S
B15: mouse IL-18 G3V/H6K/L59K on monoFc scaffold (Fc fusion, not shown: small tags and cut ends)
chain: B9 chain with H1N, G3V, H6K, C7S, A50M, G52K, R55E, A56V, C75S, C125S
B16: IL-18 variant G3P, E6V, K53A, D54W, S55P, T63S, N91L, R104K (ligand)
chain: B1 chain with A3P, E6V, S53A, D54W, S55P, T63S, R104K
B17: IL-18 variant G3Q, E6H, K53T, D54S, S55Y, N91Y, R104K (ligand)
chain: B1 chain with A3Q, E6H, S53T, D54S, S55Y, L91Y, R104K

molecular target: T1, IL-18 receptors on HEK-Blue IL-18 …; experiment: cell-based or functional assay

Binder | HEK-Blue Ec50 (pM), -IL-18BP
B1 | 0.71 pM
B2 | 0.05 pM
B3 | 0.25 pM
B4 | 0.2 pM
B5 | 2.55 pM
B6 | 0.06 pM

molecular target: T2, human IL-18 binding protein (IL-18BP); experiment: cell-based or functional assay

Binder | HEK-Blue Ec50 (pM), +IL-18BP (50 nM)
B1 | 5.82 pM
B2 | 2.8 pM
B3 | 2.27 pM
B4 | 7.05 pM
B5 | 10.7 pM
B6 | 1.67 pM

molecular target: T3, IL-18 receptors on HEK-Blue IL-18 …; experiment: cell-based or functional assay

Binder | HEK-blue EC50 (pM) - BP
B7 | 0.05 pM
B8 | 1.43 pM

molecular target: T4, human IL-18 binding protein; experiment: cell-based or functional assay

Binder | HEK-blue EC50 (pM) + 1000 nM BP
B7 | 1.26 pM
B8 | 1.05 pM

molecular target: T2, human IL-18 binding protein (IL-18BP); experiment: Octet BLI
Method: (§1) Octet 96red instrument was used to determine affinities of IL18 proteins to BP or receptors. 5-10 ug/ml analyte proteins were used for loading on Sartorius tips (AHC or SA). […] 120-180 s loading, 200 s association and 800 s dissociation were used for kinetics. 3-7 data points were used to calculate affinities.
Select G3/K53-substitution containing IL-18 variants and select G3/K53/N91-substitution containing TL-18 variants were tested for activity in the HEK-blue activity assay and for binding affinity to IL-18BP. As shown in the data of Table 15 and Table 16 below, each variant had similar or better activity than WT IL-18, and retained substantial activity in the presence of IL-18BP.

Binder | Kd | koff | kon
B1 | 4.8 nM | 0.00103 s⁻¹ | 216000 M⁻¹ s⁻¹
B2 | 0.9 nM | 0.000162 s⁻¹ | 191000 M⁻¹ s⁻¹
B3 | 3.4 nM | 0.000728 s⁻¹ | 213000 M⁻¹ s⁻¹
B4 | 1.9 nM | 0.000406 s⁻¹ | 218000 M⁻¹ s⁻¹
B5 | 9.1 nM | 0.00195 s⁻¹ | 213000 M⁻¹ s⁻¹
B6 | 1.5 nM | 0.00031 s⁻¹ | 208000 M⁻¹ s⁻¹

molecular target: T3, IL-18 receptors on HEK-Blue IL-18 …; experiment: cell-based or functional assay; remark: another data set of the same source

Binder | HEK-blue EC50 (pM) - BP
B7 | 0.038 pM
B8 | 0.042 pM

molecular target: T4, human IL-18 binding protein; experiment: cell-based or functional assay; remark: another data set of the same source

Binder | HEK-blue EC50 (pM) + 300 nM BP
B7 | 1.68 pM
B8 | 0.507 pM

molecular target: T5, mouse IL-18 receptor alpha; experiment: Octet BLI, monoFc scaffold
Method: as §1
(§2) Several mouse variants were next tested for binding affinity to mouse IL-18R alpha and mouse IL-18BP.

Binder | Kd
B9 | 1.27 nM
B10 | 17.4 nM
B11 | 12.8 nM
B12 | 14.5 nM
B13 | 51.5 nM
B14 | 12.3 nM
B15 | 24.2 nM

molecular target: T6, mouse IL-18 binding protein; experiment: Octet BLI, monoFc scaffold
Method: as §1, §2

Binder | binding result | Kd
B9 | no binding | 
B10 |  | 2.47 nM
B11 | no binding | 
B12 | no binding | 
B13 | no binding | 
B14 | no binding | 
B15 | no binding | 

molecular target: T7, interleukin 18 binding protein (IL-18BP); experiment: cell-based or functional assay

Binder | EC50 (pM) + 300 nM BP, HEK-blue re-screening | Ratio (HEK-blue EC50, + 300 nM BP against - BP)
B16 | 15.8 pM | 1.9
B17 | 4.69 pM | 1.8

molecular target: T8, IL-18 receptor (IL-18Rα and IL-18Rβ); experiment: cell-based or functional assay

Binder | EC50 (pM) - BP, HEK-blue re-screening
B16 | 8.21 pM
B17 | 2.63 pM
